One molecule from paper PMC3105431 can be followed below.

For one data set, the target named is U2AF65 (human, UniProt P26368 1-475). Description: EMSA. In general terms: Mobility shift assays separate free from complexed probe on a gel.
The next data set has as its target U2AF65;U2AF35 (human;human, UniProt P26368;Q01081 1-475;1-240, |). Kind of data set: EMSA.

Chain of U2AF65 (P26368 whole entry, one chain of several): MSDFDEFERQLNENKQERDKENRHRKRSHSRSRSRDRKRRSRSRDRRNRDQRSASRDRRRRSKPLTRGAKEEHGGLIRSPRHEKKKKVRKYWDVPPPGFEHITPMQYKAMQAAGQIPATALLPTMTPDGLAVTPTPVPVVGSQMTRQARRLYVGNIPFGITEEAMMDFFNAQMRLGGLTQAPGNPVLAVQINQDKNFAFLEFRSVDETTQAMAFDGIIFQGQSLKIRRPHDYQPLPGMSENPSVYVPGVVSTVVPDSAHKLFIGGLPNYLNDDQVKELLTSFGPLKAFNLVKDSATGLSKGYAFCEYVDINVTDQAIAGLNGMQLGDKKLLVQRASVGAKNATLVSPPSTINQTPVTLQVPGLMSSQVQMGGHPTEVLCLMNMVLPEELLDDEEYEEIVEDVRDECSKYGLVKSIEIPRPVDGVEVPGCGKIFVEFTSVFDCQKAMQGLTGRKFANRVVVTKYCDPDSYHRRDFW
Chain of U2AF65;U2AF35 (P26368 whole entry, chain 1 of 2): as the sequence (P26368 whole entry, one chain of several) above
Chain of U2AF65;U2AF35 (Q01081 whole entry, chain 2 of 2): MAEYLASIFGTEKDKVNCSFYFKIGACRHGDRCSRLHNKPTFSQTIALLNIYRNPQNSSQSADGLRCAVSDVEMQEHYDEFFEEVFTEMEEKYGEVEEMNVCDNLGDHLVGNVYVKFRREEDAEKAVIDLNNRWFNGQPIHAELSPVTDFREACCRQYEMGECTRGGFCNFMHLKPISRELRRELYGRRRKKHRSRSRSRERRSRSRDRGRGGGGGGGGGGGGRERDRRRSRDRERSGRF

In the case of GGGAGACAGGCUUACGCAUUCGUCUAUCUUUCGCAUAGUUUGGUCCA (ssRNA) [FECH mutant (PT, E+1 G>U)], the binding result with U2AF65 and with U2AF65;U2AF35 was “no binding” each time.
